The values below come from patent US20210060116A1 (published 2021).

Assay [1] addresses T1, Recombinant human p65 protein (r-p65) with DDK tag (catalog number TP320780) (human, UniProt Q04206 1-551).
T1 construct: mature; also called r-p65-DDK; human r-p65; not shown: DDK tag
The assay is described as follows: score table: the mark stands in the column >3 of KD (uM).

Assay [2] has as its target Recombinant human p65 protein (r-p65) with DDK tag (catalog number TP320780) (human) (UniProt Q04206). Put plainly: plate ELISA, peptide 20-640 µM and r-p65, anti-DDK detection; at the lowest concentration evaluated.
Assay [3] shares this target. The assay is described as follows: plate ELISA, Scatchard analysis by the method of Friguet et al. (In an ELISA, binding on a coated surface is turned into a signal by an enzyme label.)
Assay [4] deals with T1, Recombinant human p65 protein (r-p65) …. The assay is described as follows: score table: the mark stands in the column <3 of KD (uM).

Chain of Recombinant human p65 protein (r-p65) with DDK tag (catalog number TP320780) (human) (Q04206 whole entry): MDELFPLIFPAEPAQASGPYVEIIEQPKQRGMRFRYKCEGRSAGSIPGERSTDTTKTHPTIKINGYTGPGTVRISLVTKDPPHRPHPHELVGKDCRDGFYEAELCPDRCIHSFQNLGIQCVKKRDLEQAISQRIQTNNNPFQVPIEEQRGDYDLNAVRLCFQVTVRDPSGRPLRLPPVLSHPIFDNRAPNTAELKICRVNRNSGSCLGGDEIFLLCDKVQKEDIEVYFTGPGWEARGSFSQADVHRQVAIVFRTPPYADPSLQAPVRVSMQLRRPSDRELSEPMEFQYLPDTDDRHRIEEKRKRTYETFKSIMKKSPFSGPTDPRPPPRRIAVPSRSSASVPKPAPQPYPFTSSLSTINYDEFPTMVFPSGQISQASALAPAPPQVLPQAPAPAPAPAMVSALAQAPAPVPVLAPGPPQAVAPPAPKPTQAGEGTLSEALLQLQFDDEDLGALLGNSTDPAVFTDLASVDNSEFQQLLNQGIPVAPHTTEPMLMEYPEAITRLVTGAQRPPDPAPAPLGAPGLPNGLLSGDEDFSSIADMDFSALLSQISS
T1 sequence (Q04206 whole entry): as above

On to Ac-EPAPYQPEG-NH2 (also called Analog 14) [PGA-3], for which, in assay [1], the Kd was greater than 3000 nM.
As for Ac-EPAPESPQV-NH2 (also called Analog 7) [PGA-4], the Kd in assay [1] was greater than 3000 nM.
On to Ac-APKPYQPRG-NH2 [GA-1 (GILZ analog 1, as labelled in Examples 3 to 6)], for which the percent bound r-p65 in assay [2] was greater than 25%. Moreover, the dissociation constant (Kd) in assay [3] came to 2290 nM.
As to Ac-EPAPLAPYG-NH2 (also called Analog 3; GA-2) [PGA-2], the Kd in assay [4] was less than 3000 nM.
In the case of Ac-APKPYQPRG-NH2 (also called Analog 20; GA-1) [PGA-1], the Kd in assay [1] is greater than 3000 nM.
On to Ac-EPAPLAPYG-NH2 [GA-2 (GILZ analog 2, as labelled in Examples 3 to 6)], for which the percent bound r-p65 in assay [2] was greater than 25%. Moreover, the Kd in assay [3] was found to be 3240 nM.
For the molecule Ac-EPAPEQPDG-NH2 (also called Analog 8) [PGA-5], in assay [1], the equilibrium dissociation constant (Kd) was greater than 3000 nM.

For orientation: Kd means the equilibrium constant for the complex coming apart.
